What was measured:
hGal-7 homodimer = biological target: T1, hGal-7 homodimer (Homo sapiens, UniProt P47929); assay: hGal-7 homodimer disruption, low-SDS native gel electrophoresis / Western blotting; format: biochemical; settings: recombinant hGal-7 0.5 μM
T1 construct: made in house; host or cells: E. coli BL21 (DE3)
Experimental: (§1) Production of recombinant hGal-7 and hGal-1. Human Gal-7 cDNA was cloned into pET-22b(+) using Ndel and HindIII restriction enzymes. Human pET-Gal-1 vector was generously donated by Dr. S. Sato (McGill University, QC, Canada). The proteins were produced in E. coli BL21 (DE3) cells at 37° C. Isopropyl p-D-1-thiogalactopyranoside (IPTG) (1 mM) was added to the bacterial culture at OD600nm=0.6-0.7 and then incubated for 4 h at 37° C. to allow protein production. Bacterial pellets were resuspended in lysis buffer (0.7 mg/mL lysozyme, 10 mM Tris pH 8, 100 mM NaCl, 1 mM EDTA, 1 mM DTT and a protease inhibitor cocktail) and then incubated for 1 h at 37° C. prior to centrifugation for 30 min at 15,000×g (4° C.). The supernatant was then filtered with 500 mL bottle top filter ([…]) (Corning®, New York, N.Y., USA) and then ran through a lactose-agarose column (Sigma®, St. Louis, Mo., USA). The protein was eluted in 1 mL fractions with 150 mM lactose solution. Purified fractions were analyzed by SDS-PAGE. The hGal-7 was then concentrated and purified using Centrifugal filter units (Amicon® Ultra-15, 10K) (EMD®, Etobicoke, ON) in 20 mM potassium phosphate at pH 7.1. All subsequent experiments with the recombinant proteins were performed in the same buffer solution unless mentioned otherwise. Brilliant Coomassie blue was purchased from BioRad® (Bio-Rad Laboratories®, Mississauga, ON, Canada). The recombinant human Bcl-2 protein fragment was purchased from Abcam® (Abcam®, Cambridge, UK, Cat #ab73696).
Western blotting. For the apoptosis tests, whole-cell extracts were homogenized and resuspended in RIPA buffer (Thermo Fisher Scientific®, Rockford, Ill., USA) containing protease inhibitors (Roche®, Laval, QC, Canada). Equal amounts of whole-cell extracts (25 μg) were separated on SDS-PAGE and transferred onto nitrocellulose membranes (Bio-Rad Laboratories®). The membranes were first blocked with 5% milk [w/v] in TBS/0.5% Tween® 20 [v/v] for 1 h at room temperature and subsequently blotted overnight in a solution of TBS containing 3% BSA [w/v] and 0.5% Tween 20 [v/v]. The following antibodies were used: a rabbit anti-Poly-(ADP-ribose) polymerase (PARP)-1 (p25) polyclonal antibody (1:5000; Epitomics®, Burlingame, Calif., USA) and a mouse anti-β-actin (1:10000; Sigma-Aldrich®, St-Louis, Mo., USA). Secondary antibodies consisted of horseradish peroxidase-conjugated donkey anti-rabbit (GE Healthcare®, Buckinghamshire, England) and sheep anti-mouse (GE Healthcare®) IgG. Detection was performed using the enhanced chemiluminescence method (GE Healthcare®). For the recombinant protein tests, each peptide was dissolved and maintained in 20 mM potassium phosphate at pH 7.1. The recombinant proteins and peptide dilutions were pre-incubated for 1 h at 4° C. prior to gel migration. The native polyacrylamide gel was made without SDS to allow molecular weight differentiation between the dimer and monomer. The following antibodies were used: a goat anti-Gal-7 antibody (1:10000; R&D Systems®, Minneapolis, Minn., USA), a mouse anti-Gal-1 antibody (1:10000; Proteintech®, Chicago, Ill., USA) and a rabbit anti-Bcl-2 antibody (1:1000; Abeam®, Cambridge, UK). Secondary antibodies consisted of donkey anti-goat (R&D Systems®) or sheep anti-mouse and sheep anti-rabbit (GE Healthcare®) IgG. Detection was performed as described above.
To determine whether these peptides could inhibit the formation of the hGal-7 homodimer, recombinant hGal-7 (0.5 μM) was incubated with increasing concentrations of hGal-7(13-25), hGal-7(85-102), hGal-7(95-108) or hGal 7(129-135) and the formation of homodimers was measured. To measure the ability of the peptides to disrupt the formation of hGal-7 dimers, a mild denaturing (low SDS) native gel electrophoresis, a commonly used approach to visualize monomer-dimer equilibrium, was used (FIG. 1A and FIG. 6).

[1] = biological target: T2, recombinant human Gal-1 (hGal-1) (Homo sapiens, UniProt P09382); assay: hGal-1 dimer disruption (galectin selectivity control), low-SDS Western blotting; format: biochemical; settings: recombinant hGal-1, FIG. 2C
T2 construct: made in house; host or cells: E. coli BL21 (DE3)
Experimental: as §1, with “The hGal-7 was then concentrated and purified using Centrifugal filter units (Amicon® Ultra-15, 10K) (EMD®, Etobicoke, ON) in 20 mM potassium phosphate at pH 7.1. All subsequent experiments with the recombinant proteins were performed in the same buffer solution unless mentioned otherwise. Brilliant Coomassie blue was purchased from BioRad® (Bio-Rad Laboratories®, Mississauga, ON, Canada). The recombinant human Bcl-2 protein fragment was purchased from Abcam® (Abcam®, Cambridge, UK, Cat #ab73696).” left out
To determine whether these peptides could inhibit the formation of the hGal-7 homodimer, recombinant hGal-7 (0.5 μM) was incubated with increasing concentrations of hGal-7(13-25), hGal-7(85-102), hGal-7(95-108) or hGal 7(129-135) and the formation of homodimers was measured. […]

Jurkat T cells [2] = assay: hGal-7-induced apoptosis of Jurkat T cells, PARP-1 cleavage by Western blotting; format: cell-based; settings: 4 h at 37° C., serum-free RPMI, FIG. 5A
Experimental: Western blotting. For the apoptosis tests, whole-cell extracts were homogenized and resuspended in RIPA buffer (Thermo Fisher Scientific®, Rockford, Ill., USA) containing protease inhibitors (Roche®, Laval, QC, Canada). Equal amounts of whole-cell extracts (25 μg) were separated on SDS-PAGE and transferred onto nitrocellulose membranes (Bio-Rad Laboratories®). The membranes were first blocked with 5% milk [w/v] in TBS/0.5% Tween® 20 [v/v] for 1 h at room temperature and subsequently blotted overnight in a solution of TBS containing 3% BSA [w/v] and 0.5% Tween 20 [v/v]. The following antibodies were used: a rabbit anti-Poly-(ADP-ribose) polymerase (PARP)-1 (p25) polyclonal antibody (1:5000; Epitomics®, Burlingame, Calif., USA) and a mouse anti-β-actin (1:10000; Sigma-Aldrich®, St-Louis, Mo., USA). Secondary antibodies consisted of horseradish peroxidase-conjugated donkey anti-rabbit (GE Healthcare®, Buckinghamshire, England) and sheep anti-mouse (GE Healthcare®) IgG. […]
It was thus tested whether hGal-7(129-135) could modulate the binding of hGal-7 on Jurkat T cells, a cell model that is commonly used to test the pro-apoptotic activity of galectins. For this purpose, recombinant hGal-7 was labeled with fluorescein isothiocyante (FITC) and its binding on the surface of Jurkat T cells was measured by flow cytometry in absence or presence of increasing concentrations of hGal-7(129-135). […]

Jurkat T cells [3] = assay: hGal-7-induced apoptosis of Jurkat T cells, Annexin V/PI flow cytometry; format: cell-based; settings: 4 h at 37° C., FIGS. 5B and 5C
Experimental: Apoptosis assays with Annexin V/PI staining. Apoptosis was measured by flow cytometry using FITC-labeled Annexin V (Biolegend®, San Diego, Calif., USA) and propidium iodide. Briefly, the corresponding dilutions of recombinant hGal-7 and hGal-7(129-135) peptides were pre-incubated for 1 h at 4° C. in serum-free RPMI 1640 medium. 2.5×10^5 Jurkat cells were then harvested in the same medium and incubated with their corresponding dilutions at 37° C. for 4 h. Cells were washed once in PBS and once in binding buffer (0.01 M HEPES, 0.14 M NaCl, 2.5 mM CaCl2, pH 7.4). Cells were then incubated for 15 min with Annexin V in the dark at room temperature. A total of 400 μL of binding buffer containing 0.25 μg/mL propidium iodide was added to the cells before analysis by flow cytometry.
It was thus tested whether hGal-7(129-135) could modulate the binding of hGal-7 on Jurkat T cells, a cell model that is commonly used to test the pro-apoptotic activity of galectins. For this purpose, recombinant hGal-7 was labeled with fluorescein isothiocyante (FITC) and its binding on the surface of Jurkat T cells was measured by flow cytometry in absence or presence of increasing concentrations of hGal-7(129-135). […] The effect of hGal-7(129-135) was specific, statistically significant (FIG. 4B), and consistent with the increased number of monomers, which bind to surface glycosylated receptors through their CRDs. […]

[4] = 20 mM potassium phosphate pH 7.1, FIG. 2A

T1 sequence (P47929 2-136 limits assumed): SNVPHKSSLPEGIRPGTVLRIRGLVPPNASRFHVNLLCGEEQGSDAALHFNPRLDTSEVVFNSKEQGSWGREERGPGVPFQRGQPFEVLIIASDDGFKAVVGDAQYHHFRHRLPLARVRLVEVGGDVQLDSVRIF
T2 sequence (P09382 2-135 limits assumed): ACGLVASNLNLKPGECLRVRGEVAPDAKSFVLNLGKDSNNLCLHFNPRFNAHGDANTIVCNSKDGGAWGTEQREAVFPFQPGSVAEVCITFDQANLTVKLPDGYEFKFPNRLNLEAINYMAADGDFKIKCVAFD

With “H-Leu-Asp-Ser-Val-Arg-Ile-Phe-NH2 (H-LDSVRIF-NH2; listed as Homo sapiens) [hGal-7(129-135), peptide corresponding to residues 129-135 of hGal-7]” the “disruption of hGal-7 homodimers in the presence of lactose” value (hGal-7 homodimer; 0.1 mM lactose solution, FIG. 2D) was “not inhibited by the presence of lactose”, the “concentration at which consistent decrease of hGal-7 homodimers starts” value (hGal-7 homodimer; [4]) was 10 µM and the “saturation dose for decrease of hGal-7 homodimers” value (hGal-7 homodimer; [4]) was 100 µM. For the same substance, the “effect on hGal-1 dimer” value [1] was “No such effect was observed”, the “inhibition of hGal-7-induced apoptosis, PARP-1 cleavage” value (Jurkat T cells [2]) was “inhibited the ability of hGal-7 to induce apoptosis in Jurkat T cells” and the “inhibition of hGal-7-induced apoptosis, Annexin V/PI staining” value (Jurkat T cells [3]) was “confirmed”.

Source: patent US11319374B2, “Inhibitors of prototypic galectin dimerization and uses thereof” (INSTITUT NATIONAL DE LA RECHERCHE SCIENTIFIQUE, priority 2015, dated 2022)
